Assay results published in PMC3594540.

Legend:
Gαq D296A P298D (murine) = Gαq D296A P298D (murine) (UniProt P21279); test: flow cytometry protein interaction assay
Gαq K311A (murine) = Gαq K311A (murine) (UniProt P21279); test: flow cytometry protein interaction assay
Gαq-ΔN (murine) = Gαq-ΔN (murine) (UniProt P21279); test: flow cytometry protein interaction assay
[1] = molecular target: murine Gαq (residues 7–359), biotinylated for bead binding (murine) (UniProt P21279); test: flow cytometry protein interaction assay
Chain of murine Gαq (residues 7–359), biotinylated for bead binding (murine) (P21279 7-359): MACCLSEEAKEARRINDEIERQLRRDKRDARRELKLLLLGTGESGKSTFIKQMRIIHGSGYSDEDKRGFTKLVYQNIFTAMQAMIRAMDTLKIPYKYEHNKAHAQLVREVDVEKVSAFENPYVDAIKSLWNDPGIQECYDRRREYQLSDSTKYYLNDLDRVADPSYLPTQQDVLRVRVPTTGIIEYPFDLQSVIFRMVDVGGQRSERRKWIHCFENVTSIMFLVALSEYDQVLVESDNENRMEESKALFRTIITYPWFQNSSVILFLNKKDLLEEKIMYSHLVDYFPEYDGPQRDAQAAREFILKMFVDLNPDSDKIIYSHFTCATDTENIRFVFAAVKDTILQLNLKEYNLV

PLCβ3-Δ892 (human) = PLCβ3-Δ892 (human) (UniProt Q01970)
PLCβ3-Δ892 T652E (human) = PLCβ3-Δ892 T652E (human) (UniProt Q01970)

Chain of Gαq-ΔN (murine) (P21279 37-359, stated change not applied): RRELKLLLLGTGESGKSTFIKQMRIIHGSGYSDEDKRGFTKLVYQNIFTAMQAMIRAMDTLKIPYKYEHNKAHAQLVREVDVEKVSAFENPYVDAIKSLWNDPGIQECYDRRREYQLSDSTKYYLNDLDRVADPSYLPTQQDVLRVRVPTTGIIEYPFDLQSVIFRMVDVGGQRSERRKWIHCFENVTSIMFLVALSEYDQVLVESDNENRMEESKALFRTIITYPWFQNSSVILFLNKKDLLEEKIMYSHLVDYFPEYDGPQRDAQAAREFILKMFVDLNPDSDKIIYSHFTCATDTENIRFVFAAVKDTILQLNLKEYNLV
Chain of Gαq K311A (murine) (P21279 7-359 K311A): as the sequence (P21279 7-359) above, with K305A counted along it
Chain of murine Gαq (residues 7–359), biotinylated for bead binding (P21279 7-359): as the sequence (P21279 7-359) above
Chain of Gαq D296A P298D (murine) (P21279 7-359 D296A/P298D): as the sequence (P21279 7-359) above, with D290A, P292D counted along it
Chain of Gαq-ΔN (P21279 37-359, stated change not applied): as the sequence (P21279 37-359, stated change not applied) above

| Substance | Ki [1] | EC50 of Gαq-stimulated PIP2 hydrolysis ([3H]-IP3 release from liposomes) (PLCβ3-Δ892 (human)) | further results |
| --- | --- | --- | --- |
| PLCβ3 T652E (from UniProt Q01970) (enzyme) | 160 nM |  |  |
| PLCβ3-Δ882-937 (from UniProt Q01970 10-1234) (enzyme) | 230 nM |  |  |
| PLCβ3 I1129E V1133E I1136E triple mutant (from UniProt Q01970) (enzyme) | 93 nM |  | Ki (Gαq-ΔN (murine)): 78 nM |
| AF488-labeled PLCβ3-Δ892 R872A L876A L879A (from UniProt Q01970 10-892) (domain or fragment) |  |  | Kd [1]: 40 nM |
| PLCβ3 L876A EEE (from UniProt Q01970) (enzyme) | 26 nM |  | Ki (Gαq-ΔN (murine)): 42 nM |
| Gαq C9S C10S (from UniProt P21279 7-359) (natural protein) |  | 150 nM |  |
| Gαq D296A P298D (from UniProt P21279 7-359) (natural protein) |  | 540 nM |  |
| human PLCβ3 (residues 10–1234) (from UniProt Q01970 10-1234) (enzyme) |  |  | Ki (Gαq K311A (murine)): 260 nM |
| Gαq-ΔN (from UniProt P21279 37-359) (domain or fragment) |  | 59 nM |  |

Further lines, with some results ahead:

| Ki [1] | EC50 of Gαq-stimulated PIP2 hydrolysis ([3H]-IP3 release from liposomes) (PLCβ3-Δ892 (human)) | Substance | further results |
| --- | --- | --- | --- |
| 490 nM |  | PLCβ3-Δ892 (from UniProt Q01970 10-892) (domain or fragment) | Ki (Gαq D296A P298D (murine)): 420 nM; Ki (Gαq K311A (murine)): 380 nM; Ki (Gαq-ΔN (murine)): 490 nM |
| 20 nM |  | PLCβ3 L876A (from UniProt Q01970 10-1234) (enzyme) | Ki (Gαq D296A P298D (murine)): 12 nM; Ki (Gαq K311A (murine)): 16 nM; Ki (Gαq-ΔN (murine)): 24 nM |
| 250 nM |  | PLCβ3-Δ892 T652E (from UniProt Q01970 10-892) (domain or fragment) |  |
| 12 nM |  | PLCβ3-Δ882-937 L876A (from UniProt Q01970 10-1234) (enzyme) |  |
|  | 59 nM | murine Gαq (residues 7–359), biotinylated for bead binding (from UniProt P21279 7-359) (natural protein) | EC50 of Gαq-stimulated PIP2 hydrolysis ([3H]-IP3 release from liposomes) (PLCβ3-Δ892 T652E (human)): 250 nM |
|  | 150 nM | Gαq K311A (from UniProt P21279 7-359) (natural protein) |  |
